# Where a SMILES comes first, the peptide text is derived from it. [ ]: non-standard residue; d: D form. The star is where a group is joined. X1 = O=C(CCCCCCCn1cnc2c(Br)c(Br)c(Br)c(Br)c21)*
# Assays:
# Experiment in all cases: Kinase panel residual activity
# Format in all cases: biochemical
# Settings in all cases: compound at 1 micromolar
# MLK3 = MLK3 (Homo sapiens, UniProt Q16584)
# RSK1 = RSK1 (Homo sapiens, UniProt Q15418)
# BRK = BRK (Homo sapiens, UniProt Q13882)
# MELK = MELK (Homo sapiens, UniProt Q14680)
# EPH-B2 = biological target: T1, EPH-B2 (Homo sapiens, UniProt P29323)
# T1 sequence (P29323 19-1055): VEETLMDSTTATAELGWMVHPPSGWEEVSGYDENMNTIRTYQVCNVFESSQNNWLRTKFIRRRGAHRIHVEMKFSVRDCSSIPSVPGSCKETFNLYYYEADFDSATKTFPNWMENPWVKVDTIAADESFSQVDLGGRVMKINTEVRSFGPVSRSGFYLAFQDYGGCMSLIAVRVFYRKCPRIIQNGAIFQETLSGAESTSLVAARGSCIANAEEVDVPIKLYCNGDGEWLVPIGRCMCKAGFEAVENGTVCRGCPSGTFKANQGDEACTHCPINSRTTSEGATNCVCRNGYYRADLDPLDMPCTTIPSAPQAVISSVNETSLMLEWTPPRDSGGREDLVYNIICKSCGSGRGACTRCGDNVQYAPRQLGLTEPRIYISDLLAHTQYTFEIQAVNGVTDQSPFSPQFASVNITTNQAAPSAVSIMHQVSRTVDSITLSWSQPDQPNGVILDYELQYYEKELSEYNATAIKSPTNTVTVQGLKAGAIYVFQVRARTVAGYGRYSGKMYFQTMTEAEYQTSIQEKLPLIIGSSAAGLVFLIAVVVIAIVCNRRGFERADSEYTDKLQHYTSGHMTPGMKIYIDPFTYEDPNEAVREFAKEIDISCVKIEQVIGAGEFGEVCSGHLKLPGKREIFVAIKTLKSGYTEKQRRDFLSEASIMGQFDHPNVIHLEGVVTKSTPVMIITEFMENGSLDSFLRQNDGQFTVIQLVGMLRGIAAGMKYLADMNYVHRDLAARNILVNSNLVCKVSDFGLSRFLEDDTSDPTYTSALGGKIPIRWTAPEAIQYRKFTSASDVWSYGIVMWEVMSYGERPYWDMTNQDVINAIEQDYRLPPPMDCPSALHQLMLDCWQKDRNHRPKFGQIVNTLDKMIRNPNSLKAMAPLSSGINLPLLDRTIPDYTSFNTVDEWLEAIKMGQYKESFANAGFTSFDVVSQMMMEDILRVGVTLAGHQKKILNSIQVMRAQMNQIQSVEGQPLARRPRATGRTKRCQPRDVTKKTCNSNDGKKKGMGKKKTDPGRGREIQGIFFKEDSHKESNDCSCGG
# MSK1 = MSK1 (Homo sapiens, UniProt O75582)
# DYRK2 = biological target: T2, DYRK2 (Homo sapiens, UniProt Q92630)
# T2 sequence (Q92630 1-601): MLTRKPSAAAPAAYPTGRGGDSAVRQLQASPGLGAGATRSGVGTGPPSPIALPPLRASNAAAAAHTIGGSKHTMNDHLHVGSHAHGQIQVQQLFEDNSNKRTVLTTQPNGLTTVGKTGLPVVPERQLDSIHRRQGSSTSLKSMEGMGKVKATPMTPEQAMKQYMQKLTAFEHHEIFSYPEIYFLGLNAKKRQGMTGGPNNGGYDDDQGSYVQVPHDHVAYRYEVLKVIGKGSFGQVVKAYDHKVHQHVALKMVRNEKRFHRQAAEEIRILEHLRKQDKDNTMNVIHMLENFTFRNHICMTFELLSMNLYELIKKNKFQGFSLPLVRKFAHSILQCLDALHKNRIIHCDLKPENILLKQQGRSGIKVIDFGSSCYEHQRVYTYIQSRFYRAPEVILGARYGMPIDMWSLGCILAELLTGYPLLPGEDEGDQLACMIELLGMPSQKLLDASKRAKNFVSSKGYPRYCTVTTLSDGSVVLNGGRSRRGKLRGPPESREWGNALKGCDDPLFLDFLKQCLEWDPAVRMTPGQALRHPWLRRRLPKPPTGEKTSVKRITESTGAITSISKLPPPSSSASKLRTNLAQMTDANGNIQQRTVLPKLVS
# MAP4K5 = MAP4K5 (Homo sapiens, UniProt Q9Y4K4)
# SGK1 = biological target: T3, SGK1 (Homo sapiens, UniProt O00141)
# T3 sequence (O00141 1-431): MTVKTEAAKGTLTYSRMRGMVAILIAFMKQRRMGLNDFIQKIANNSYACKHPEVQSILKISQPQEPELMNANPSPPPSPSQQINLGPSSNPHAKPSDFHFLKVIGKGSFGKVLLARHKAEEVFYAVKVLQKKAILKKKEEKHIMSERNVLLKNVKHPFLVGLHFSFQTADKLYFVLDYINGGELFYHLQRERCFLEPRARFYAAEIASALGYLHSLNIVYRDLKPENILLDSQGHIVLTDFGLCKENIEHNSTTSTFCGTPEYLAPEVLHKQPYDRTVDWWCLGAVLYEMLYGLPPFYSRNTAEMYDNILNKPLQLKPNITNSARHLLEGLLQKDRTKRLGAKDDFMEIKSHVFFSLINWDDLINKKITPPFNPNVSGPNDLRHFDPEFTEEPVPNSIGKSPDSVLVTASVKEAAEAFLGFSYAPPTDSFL
# OSR1 = OSR1 (Homo sapiens, UniProt O95747)
# CAMK1 = CAMK1 (Homo sapiens, UniProt Q14012)
# Chain of CAMK1 (Q14012 whole entry): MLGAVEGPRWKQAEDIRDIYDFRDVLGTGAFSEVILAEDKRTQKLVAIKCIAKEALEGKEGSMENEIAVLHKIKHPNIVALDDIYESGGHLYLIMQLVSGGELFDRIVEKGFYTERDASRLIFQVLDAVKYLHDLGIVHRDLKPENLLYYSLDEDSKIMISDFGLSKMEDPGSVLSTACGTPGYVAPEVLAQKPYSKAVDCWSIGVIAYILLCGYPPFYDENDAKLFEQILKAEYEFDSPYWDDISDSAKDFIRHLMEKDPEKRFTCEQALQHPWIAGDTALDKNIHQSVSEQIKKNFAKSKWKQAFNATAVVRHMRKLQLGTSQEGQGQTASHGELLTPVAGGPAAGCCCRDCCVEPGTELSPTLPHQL
# Chain of MLK3 (Q16584 whole entry, species assumed): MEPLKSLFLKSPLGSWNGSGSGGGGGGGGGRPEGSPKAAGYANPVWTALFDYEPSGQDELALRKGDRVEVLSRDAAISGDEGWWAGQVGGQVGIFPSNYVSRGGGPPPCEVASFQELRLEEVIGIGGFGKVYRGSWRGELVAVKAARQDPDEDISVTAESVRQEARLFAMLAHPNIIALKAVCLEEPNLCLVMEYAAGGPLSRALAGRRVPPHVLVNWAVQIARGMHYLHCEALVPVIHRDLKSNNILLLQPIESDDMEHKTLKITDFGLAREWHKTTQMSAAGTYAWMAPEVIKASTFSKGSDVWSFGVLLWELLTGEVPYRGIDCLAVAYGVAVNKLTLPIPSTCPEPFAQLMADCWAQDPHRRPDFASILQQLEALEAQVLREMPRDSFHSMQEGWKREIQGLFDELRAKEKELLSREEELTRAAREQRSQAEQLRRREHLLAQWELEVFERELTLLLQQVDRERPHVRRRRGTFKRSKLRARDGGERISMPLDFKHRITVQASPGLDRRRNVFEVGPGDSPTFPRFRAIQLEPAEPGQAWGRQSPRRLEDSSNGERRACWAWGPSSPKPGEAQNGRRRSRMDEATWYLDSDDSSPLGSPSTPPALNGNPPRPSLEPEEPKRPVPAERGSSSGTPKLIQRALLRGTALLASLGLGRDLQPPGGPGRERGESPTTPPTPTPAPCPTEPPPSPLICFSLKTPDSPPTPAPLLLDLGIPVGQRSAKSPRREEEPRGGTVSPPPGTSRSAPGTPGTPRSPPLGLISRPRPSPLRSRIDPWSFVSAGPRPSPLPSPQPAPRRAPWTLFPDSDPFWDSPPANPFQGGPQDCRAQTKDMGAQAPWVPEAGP
# Chain of OSR1 (O95747 whole entry): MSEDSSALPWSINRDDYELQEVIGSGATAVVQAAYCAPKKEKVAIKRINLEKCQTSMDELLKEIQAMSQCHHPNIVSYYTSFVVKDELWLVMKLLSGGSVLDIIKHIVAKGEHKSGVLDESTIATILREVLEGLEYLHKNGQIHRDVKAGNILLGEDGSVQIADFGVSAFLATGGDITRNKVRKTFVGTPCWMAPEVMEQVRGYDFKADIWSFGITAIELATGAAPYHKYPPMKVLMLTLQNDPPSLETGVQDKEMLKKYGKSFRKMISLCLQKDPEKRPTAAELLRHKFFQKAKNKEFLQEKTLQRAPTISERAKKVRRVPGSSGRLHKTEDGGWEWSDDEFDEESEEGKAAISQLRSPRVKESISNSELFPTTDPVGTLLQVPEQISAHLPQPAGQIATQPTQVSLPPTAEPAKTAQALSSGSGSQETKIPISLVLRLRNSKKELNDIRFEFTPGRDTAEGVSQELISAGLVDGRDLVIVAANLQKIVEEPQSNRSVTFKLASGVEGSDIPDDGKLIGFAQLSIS
# Chain of MAP4K5 (Q9Y4K4 whole entry, species assumed): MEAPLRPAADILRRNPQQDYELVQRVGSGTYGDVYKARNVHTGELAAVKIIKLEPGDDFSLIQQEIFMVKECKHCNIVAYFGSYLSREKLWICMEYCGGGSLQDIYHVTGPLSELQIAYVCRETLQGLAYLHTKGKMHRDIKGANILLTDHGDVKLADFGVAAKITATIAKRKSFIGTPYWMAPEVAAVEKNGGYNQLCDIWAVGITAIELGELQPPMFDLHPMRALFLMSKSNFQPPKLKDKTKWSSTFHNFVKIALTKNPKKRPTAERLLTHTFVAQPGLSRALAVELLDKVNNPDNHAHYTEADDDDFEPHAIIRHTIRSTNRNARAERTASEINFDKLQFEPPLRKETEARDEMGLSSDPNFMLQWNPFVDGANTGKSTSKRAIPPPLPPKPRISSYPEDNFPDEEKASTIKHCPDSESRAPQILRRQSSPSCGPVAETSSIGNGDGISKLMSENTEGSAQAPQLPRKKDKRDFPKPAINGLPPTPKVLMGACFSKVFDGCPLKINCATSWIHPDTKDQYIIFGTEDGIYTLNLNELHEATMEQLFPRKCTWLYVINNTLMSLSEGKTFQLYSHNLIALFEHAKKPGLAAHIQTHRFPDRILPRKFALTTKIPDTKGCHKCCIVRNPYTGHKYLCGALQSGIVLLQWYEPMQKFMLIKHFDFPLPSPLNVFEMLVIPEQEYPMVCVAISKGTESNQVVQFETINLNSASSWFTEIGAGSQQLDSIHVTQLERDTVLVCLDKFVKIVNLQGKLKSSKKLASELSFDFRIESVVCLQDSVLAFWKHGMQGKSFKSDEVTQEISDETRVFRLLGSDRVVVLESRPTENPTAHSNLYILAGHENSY
# Chain of MELK (Q14680 whole entry, species assumed): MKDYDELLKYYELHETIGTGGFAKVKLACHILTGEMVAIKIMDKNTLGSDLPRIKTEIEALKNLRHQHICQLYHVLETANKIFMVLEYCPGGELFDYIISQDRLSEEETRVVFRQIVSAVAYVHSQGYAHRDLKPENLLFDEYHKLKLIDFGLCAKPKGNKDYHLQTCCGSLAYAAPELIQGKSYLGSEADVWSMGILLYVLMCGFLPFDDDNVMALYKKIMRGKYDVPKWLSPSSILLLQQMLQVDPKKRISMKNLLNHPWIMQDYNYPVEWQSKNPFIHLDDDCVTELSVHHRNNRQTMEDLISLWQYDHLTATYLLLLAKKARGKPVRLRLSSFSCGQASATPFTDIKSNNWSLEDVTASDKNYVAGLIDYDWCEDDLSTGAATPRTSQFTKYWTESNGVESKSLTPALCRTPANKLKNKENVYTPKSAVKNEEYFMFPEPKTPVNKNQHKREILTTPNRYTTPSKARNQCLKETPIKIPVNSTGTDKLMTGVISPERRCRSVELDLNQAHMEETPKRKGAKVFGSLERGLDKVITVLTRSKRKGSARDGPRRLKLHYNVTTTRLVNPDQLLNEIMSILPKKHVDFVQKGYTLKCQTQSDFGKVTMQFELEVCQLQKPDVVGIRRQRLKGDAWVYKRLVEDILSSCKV
# Chain of RSK1 (Q15418 whole entry, species assumed): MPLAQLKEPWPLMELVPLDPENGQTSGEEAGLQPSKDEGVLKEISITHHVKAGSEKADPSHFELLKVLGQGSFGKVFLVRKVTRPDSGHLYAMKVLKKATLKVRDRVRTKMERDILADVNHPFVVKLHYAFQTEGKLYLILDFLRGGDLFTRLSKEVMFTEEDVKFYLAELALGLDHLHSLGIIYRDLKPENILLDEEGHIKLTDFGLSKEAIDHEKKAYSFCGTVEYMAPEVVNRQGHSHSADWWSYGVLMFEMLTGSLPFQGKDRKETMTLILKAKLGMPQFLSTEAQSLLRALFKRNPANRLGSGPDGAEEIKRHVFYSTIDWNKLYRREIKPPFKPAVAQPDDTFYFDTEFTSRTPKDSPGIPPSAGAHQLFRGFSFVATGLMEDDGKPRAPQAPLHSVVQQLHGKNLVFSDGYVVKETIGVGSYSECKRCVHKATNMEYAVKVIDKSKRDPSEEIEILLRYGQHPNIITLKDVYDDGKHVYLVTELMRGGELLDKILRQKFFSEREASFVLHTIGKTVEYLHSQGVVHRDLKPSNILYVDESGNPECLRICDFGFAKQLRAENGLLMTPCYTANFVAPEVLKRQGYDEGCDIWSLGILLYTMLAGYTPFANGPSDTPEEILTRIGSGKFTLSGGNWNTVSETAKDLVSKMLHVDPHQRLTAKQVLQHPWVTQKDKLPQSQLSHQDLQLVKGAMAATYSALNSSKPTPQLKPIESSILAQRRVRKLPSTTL
# Chain of MSK1 (O75582 whole entry, species assumed): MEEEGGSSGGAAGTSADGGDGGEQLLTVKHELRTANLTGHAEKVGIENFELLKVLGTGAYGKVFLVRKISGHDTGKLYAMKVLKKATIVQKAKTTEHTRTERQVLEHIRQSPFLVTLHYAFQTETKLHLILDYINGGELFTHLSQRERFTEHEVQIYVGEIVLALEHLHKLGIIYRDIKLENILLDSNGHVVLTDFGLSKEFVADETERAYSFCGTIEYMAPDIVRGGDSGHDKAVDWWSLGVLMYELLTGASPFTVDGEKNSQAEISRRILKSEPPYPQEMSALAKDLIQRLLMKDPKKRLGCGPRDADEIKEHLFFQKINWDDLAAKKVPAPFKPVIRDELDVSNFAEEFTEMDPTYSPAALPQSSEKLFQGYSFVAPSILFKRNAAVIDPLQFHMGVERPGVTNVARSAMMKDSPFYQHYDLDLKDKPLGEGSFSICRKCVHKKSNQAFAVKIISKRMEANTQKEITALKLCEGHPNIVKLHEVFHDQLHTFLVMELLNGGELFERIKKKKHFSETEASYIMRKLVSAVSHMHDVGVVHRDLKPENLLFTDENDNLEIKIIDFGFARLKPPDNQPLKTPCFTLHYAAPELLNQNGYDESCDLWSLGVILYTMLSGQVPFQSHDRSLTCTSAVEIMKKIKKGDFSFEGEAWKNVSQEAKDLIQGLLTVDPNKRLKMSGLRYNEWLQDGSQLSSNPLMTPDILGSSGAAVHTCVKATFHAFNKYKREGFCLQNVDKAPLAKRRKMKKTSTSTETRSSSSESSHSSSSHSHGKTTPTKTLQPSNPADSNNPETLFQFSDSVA
compound,measurement,setting,value
NCCCC[C@H](NC(=O)[C@H](CC(=O)O)NC(=O)[C@H](CC(=O)O)NC(=O)[C@H](CC(=O)O)NC(=O)[C@H](CC(=O)O)NC(=O)[C@H](CC(=O)O)NC(=O)[C@@H](CC(=O)O)NC(=O)CCCCCCCn1cnc2c(Br)c(Br)c(Br)c(Br)c21)C(=O)O [TBBI-OcA-(D-Asp)-(L-Asp)5-(L-Lys)-OH] (X1-[dD]DDDDDK-OH),remaining activity at 1 µM,MLK3,89%
same,remaining activity at 1 µM,RSK1,88%
same,remaining activity at 1 µM,BRK,113%
same,remaining activity at 1 µM,MELK,92%
same,remaining activity at 1 µM,EPH-B2,113%
same,remaining activity at 1 µM,MSK1,102%
same,remaining activity at 1 µM,DYRK2,17%
same,remaining activity at 1 µM,MAP4K5,132%
same,remaining activity at 1 µM,SGK1,127%
same,remaining activity at 1 µM,OSR1,130%
same,remaining activity at 1 µM,CAMK1,105%
